Results on 22 sequences are retold here after the DeepSol protein solubility set.

A short description of this series: soluble on expression in E. coli; label from the status in PepcDB or PDB records.
With “MHHHHHHSSGVDLGTENLYFQSNAMNFKLNNTLSNEINTLIIGIPEHLNQLERISFNHIDITESLERLKHQHIIGSKVGKIYTTAFDVQDQTYRLITVGLGNLKTRSYQDMLKIWGHLFQYIKSEHIEDTYLLMDSFISKYDQLSDVLMACGIQSERATYEFDHYKSSKKAPFKTNLNLISESLIELDFIHEGISIGQSINLARDFSNMPPNVLTPQTFAEDIVNHFKNTKVKVDVKDYDTLVSEGFGLLQAVGKGSKHKPRLVTITYNGKDKDEAPIALVGKGITYDSGGYSIKTKNGMATMKFDMCGAANVVGIIEAASRLQLPVNIVGVLACAENMINEASMKPDDVFTALSGETVEVMNTDAEGRLVLADAVFYANQYQPSVIMDFATLTGAAIVALGDDKAAAFESNSKVILNDILQISSEVDEMVFELPITATERASIKHSDIADLVNHTNGQGKALFAASFVTHFSGQTPHIHFDIAGPATTNKASYNGPKGPTGFMIPTIVQWLKQQ”, the “soluble on expression in E. coli” value is given as “soluble”. Consider “MRYNEKELQALSRQPAEMAAELGMRGPKKGSVLKRRLVKLVVNFLFYFRTDEAEPVGALLLERCRVVREEPGTFSISFIEDPERKYHFECSSEEQCQEWMEALRRASYEFMRRSLIFYRNEIRKVTGKDPLEQFGISEEARFQLSGLQA”, for which the “soluble on expression in E. coli” value was “soluble”.

“MDADSSNSTVTPGRLPDGLSSCPCFYLGKKLMNLSANAQATLLLTSDFSRAAASKYKPLSNSEWGKFALWLKHQRISPAELLVPQPQEKLTGWSDPRISQERILGLLARGHSLALAVDKWQRAGLWILTRGDADYPVRLKNRLRTDAPPVLFGCGNKALLQAEGMAIVGSRDAPTDDLRYTQQLAAKLAQQGICVISGGARGIDECAMASALEAGGTAVGVLADSLLKTSTLVKWREGLIAGNLVLISPFYPEVRFTVGNAMARNKYIYCLAESAMVVRAGMTGGTITGAMEALKHQWLPVQVKPNQDMQSANSRLVENGASWSAEQAENVTIRLPDVPGLMYDRALRNAQPELFSLHEDDANYAVMPAYTPVDFYQLFVAELAILAKESISIERLASCTGLTIEQISVWLNRAEEEGRVIRLGEGHYQFR”: the “soluble on expression in E. coli” value is recorded as “not soluble”. Turning to “SAASEHRCVGCGFRVKSLFIQYSPGNIRLMKCGNCKEVADEYIECERMIIFIDLILHRPKVYRHVLYNAINPATVNIQHLLWKLVFAYLLLDCYRSLLLRKSDEESSFSDSPVLLSIKVRSFLFNGLN”, the “soluble on expression in E. coli” value is recorded as “soluble”.

“MSNTLFDDIFQVSEVDPGRYNKVCRIEAASTTQDQCKLTLDINVELFPVAAQDSLTVTIASSLNLEDTPANDSSATRSWRPPQAGDRSLADDYDYVMYGTAYKFEEVSKDLIAVYYSFGGLLMRLEGNYRNLNNLKQENAYLLIRR”: the “soluble on expression in E. coli” value is given as “soluble”. For “GGGVKAFAFIGALQVLEENGFSFTRVAGTSAGAIFASLVCSGYRSDELFSIMEQLDGKMFKDGGKVMPFPFAKWLRLYFKLGMYKGDQLEKWLIQVLGHKGVSTFADLPKGALKIVASDISRGRLIVLPDDLKDYGLIPERFSVARAVRMSCGIPYFFQPVKLYNRKRRGERSYVVDGGILSNFPIWL” the value was “not soluble”.

On to “MGSDKIHHHHHHMSHTLYEASVIRVQRCELAVPGSNPGMFEKALKSGVDFVFLDLEDAVAPDDKLTARKNVIEALNDLDWRGHGVTVSVRINGLDTQFMVRDVVDVVEKAGHKLDTILIPKVGVYSDVYMVEAMLNQLEMQQGLKNRIGIEALIETALGMANVEDIARHGVRGRLEALHFGVADYAASNRARTTNIGGLNPDYPGDQWHAAISRMTVACRAYGLRPIDGPFGDIQDPEGYKAAARRAAALGCEGKWAIHPSQIDLANEVFTPPPSEVEKAQRILAALQEAAAQGKGAAALDGRLIDAASARMANNVVKMAEAIGATAT”, for which the “soluble on expression in E. coli” value was “not soluble”.

Regarding “RQPEVRGGDTLNVFLAYVPEDAKAMMTTPFEAYLVNDSNYYLYYTYLSAEGKAWNNRSHGLVEPNTKLLLEEFTKDVLNEMERVAVQLIAFKDGKPAAIKPAVSVELRIDTVKFYKLHTFSASDFFEEPALIYDIVKDDVPAKQVYV”, the “soluble on expression in E. coli” value is given as “soluble”.

For the sequence “MGSDKIHHHHHHMMKLIPRSSDISPGIDGICPGPFPPNGFTVLTDAAYGNGDCFGLYWPIGQEHKLPIVCETYHDEWRIVPAFSSIKKFEEWLEVNDDDPHENGISIEDQDFAANLFRVARKCLSTGRLDDALPLLQRATEQLPEVSEYWLALAIQYRRCKKTEAAAQAALNAYLGNWAFGVPDNKVIHLLSQAADVPNFQDDPVIQCIKEQGLDLSFGGTKENNNYPLMQMCVDTYFAQRKPLQALTLLHNYAWIMSSETTAFQERYDFNIDEWRAKFRQLCLEYFGDSRTQFT”, the “soluble on expression in E. coli” value is “not soluble”. The same measure for “MPNITWCDLPEDVSLWPGLPLSLSGDEVMPLDYHAGRSGWLLYGRGLDKQRLTQYQSKLGAAMVIVAAWCVEDYQVIRLAGSLTARATRLAHEAQLDVAPLGKIPHLRTPGLLVMDMDSTAIQIECIDEIAKLAGTGEMVAEVTERAMRGELDFTASLRSRVATLKGADANILQQVRENLPLMPGLTQLVLKLETLGWKVAIASGGFTFFAEYLRDKLRLTAVVANELEIMDGKFTGNVIGDIVDAQYKAKTLTRLAQEYEIPLAQTVAIGDGANDLPMIKAAGLGIAYHAKPKVNEKAEVTIRHADLMGVFCILSGSLNQK”: “not soluble”; for “MAHHHHHHMKRENVSFPHAQSNVVSNLDGNTLLNDSLVQQSCSPTESKEDVKTEYDSFVDAPVIPLTEKFDDNYSQPVSTVNPRDDSIKCEMDVLPASSLTSVCNRKVIHGEKVDNDRVKIVRDWLLMPVLSQDSDFEGDGDDFIDTLLHIAEDKMYLYGFYERLGQTELVTTRRINNRKRSRGSNGISHATGNQGAQAPVMATSPPQVLPFSFVNWLPNSGKGRCDPERVHQQTISSDAILCSGEKYTLCRYALSSGKLRKECADPYQFLTAKLQEIRHCMEEELMGDAKNSNEKKTGVTDY”: “not soluble”; for “MGSDKIHHHHHHMSRSPFQTFVWRSEIFECQSTDIQRFYSLLAIETERLGLGSKILGQAGHHPLYLLQSPGQKAGLPNLLISAGFHGEESAGPWGLLHFLSQLDGELFKRVNLSVLPLVNPTGFAKGHRFNELGENPNRGFFIENGKAKPGADTSAEGRILLEHAHLLQVASRDGILTCHEDVLMTDTYVYTFEPSQAPGRFSHSLRDALGQYFPIAADGDVDNCPVRSGVIFNHFDTSFESFLVRSGARVGCCSETPGQQPLDQRILANAAAMNTFVNMLAPELS”: “not soluble”. With “MSLLRKDATEERLTGRYFTPKDLASYIIDWVIQDNNINKILEPSCGNGVFLECLGERRLEDGRNITAIEIDEDVSFEASMQIDNSLRFNNCYDYQRALRNDGDIVNNGIVIINDDFYKVYEQELQGQRFQAIVGNPPYIRYQYLSEQQREEQSKILIRNNMRPNKLINAWVSFVVACAEILDGNGKMGLVIPAELLQVAYAEDLRRFIMRTFQRITIVTFRELVFPNVQQEVVLLLVEKEILHTREGHHHHHH”, the “soluble on expression in E. coli” value is given as “soluble”. For “GLETSSKKYSLGKTLGTGSFGIVCEVFDIESGKRFALKKVLQDPRYKNRELDIMKVLDHVNIIKLVDYFYTTGDEEPKPPQPPDDHNKLGGKNNGVNNHHKSVIVNPSQNKYLNVIMEYVPDTLHKVLKSFIRSGRSIPMNLISIYIYQLFRAVGFIHSLGICHRDIKPQNLLVNSKDNTLKLCDFGSAKKLIPSEPSVAYICSRFYRAPELMLGATEYTPSIDLWSIGCVFGELILGKPLFSGETSIDQLVRIIQIMGTPTKEQMIRMNPHYTEVRFPTLKAKDWRKILPEGTPSLAIDLLEQILRYEPDLRINPYEAMAHPFFDHLRNSYESEVKNNSNFPHGVNQNIPQLFNFSPYELSIIPGNVLNRILPKNFSPNYKH” the value was “soluble”. For “AVSSATLEMESQRDEVAGLVRLGLSQSFGTLHIIPAIQELRELYPQLQVEVHLFDYKVDMLAEGLDLWVTNNEHLPEGYIAQRLTDCQFVVAASPDYLLKYDTPTEPNDLSLHNCLIYRSWERDYTGWAFTKGQQELNVKVSGNYSVDLAEAVRDAAIAGWGIAYLATYLLGDEFRTGKLIQLLPDWKASQSMPFYAVYPSRQHMPKKISAVINFIKQKIGNPCHWDQRLAPYISIPK” the value was “not soluble”; for “MGSDKIHHHHHHMTVHDRIVAEPFSLQRRNPAGGTKPLTSWGFANETDVLTDVLLGSPNFLRHLSTSSLSRKHLREAPCNVQIAQAQHKDLVAAYEHFGVNIHWHEPTPELPMQVYSRDSSVMTPYGAIITAMANWWRRGENYAAIRTYEKLGIPIYDMVTAGTFEGGDFNVIEDGVVLIGCGGARTQEEGARQVQAWFEKEGWETRIAFIDEYYVHIDLMVVPIAEKLTAVCLACTEPGIVDWLKGKGHEIIDVPFQDTMALGCNFMSLGKDRVIAPTSSQTLIGQLKARGFEVAAVDMSEISKTGGGIHCMAQALKREAA”, “not soluble”; for “MSLSHLVVFDLDGTLTRQRGGFELLHTLYGTTPEAETLMNRFEAGEITFTEWCQGAVDMWRANDITRSDITRATRALKPKAGAVDLLAHLQQTDIRFGILSAGVANLAARFEPYEPAFVRGNWLQFEDRRVSAIDIGVGPNEKGELLRKIRSKQNPVSITYIGDSHTDTEAFIEADTAVLFDPDERVPETAIDAADTIIESADIAEVQNCIPTEGHHHHHH”, “not soluble”. For “MAHHHHHHMKALVFLEVEESATGSNTARSTATQMHALFAGLVEMSMHVYLEKDASLAAASGAAEARVLLLSTVVKDLLSVREQSRSSPAQYVRYVQRMLIARTPVVPYITTQLLQDCQSQTALLTTSHGPTVLGAKRGDPAECFSVVHPRRYR” the value was “not soluble”; for “GYRALSFPDPLDSQPVQAIAFYPSTGSEHLSIIHGYRVEASEDAPIAMGRFPLLLLSHGNTGTPLALHDLATSLARQGFVVVAVVHPGDNDRDHSRLGSLSNLYGRPLQISEAISTALLDPVLAPYLNARQVGVIGYSAGGETALILAGAQPDLQRLRQYCLERPTDRDACKTQGELVADRDDLHAQADPRVGALMLMAPLSLMFGRHTLGDVHVPVLMYAGDDDQLLALDRNAEALARKLPQAPDYKLLAGAGHFVFMAPCSDEQREAAPLL”, “not soluble”.

Take “GPGSMTKLFHHNITAIHEKFQPPFSVDTFRRIARLVLARVEHMPPPDYYDGSAVWRRVRHYMRQWIKKPDPSEVCMVPLLDLVNHSNRPNCGLRVGPSSVVGGKGAITLYSIARINPGQEICRHYNFAINRPNALFRYGFLPFDLISIVEHDAIDEYLVKNQHMLREESEEVRMKQQKEREEIQKLEKIFQHARSGR”: the “soluble on expression in E. coli” value was “not soluble”. The same measure for “MNSELKARYKVLGSEKEHTKSETLTETLIEVIVNGDVEPGSKISEPELARKYQVSRGPLREALMRLEGLGLIERIPHVGARVTTFSPAKLIELYSVREALEGMAARLAARHITQEELLSLEMLLSTHSKHIDQVEGASYFHQHGDFDFHYRIIQASRNSKLISLLCDELYHLLRMYRYQSPRAQSRPNEALTEHKFILEAIRNRDEELAEMLMRRHISGSRKLIQSQIIHTESLDKD”: “not soluble”; for “MSDLENKKAEEAPKKRPYNLREKKEKKAAYRSLIRPELADELYDKILNIVVVQKKYKDPDYSAKDLAKELKTNTRYLSAVVNSRFGMNYSCLLNEYRVKDALHLLTDKRYADKNVEEISAMVGFANRQSFYAAFYKNVGETPNGYRKKHAESKK”: “not soluble”.
